# Results published in patent US20240115668A1 (KOLON TISSUEGENE, published 2024).
# Changes are numbered by the printed parent chain.
# B1: TGN-3 peptide (peptide)
# peptide: RRRRRRRRHYRYVDTTDVDPENEPFDEDQHTQITKV
# modifications: C-terminal amide
# B2: TGN-1 peptide (peptide)
# peptide: RRRRRRRRVTPDVSDNEPDHYRYSDTTDSDPE
# modifications: three phosphorylated Serine residues (pS; PTEN Ser370, Ser380 and Ser385 = peptide positions 14, 24 and 29); C-terminal amide
# B3: TGN-2 peptide (peptide)
# peptide: B1 peptide with V13S, V18S
# modifications: two phosphorylated Serine residues (pS; PTEN Ser380 and Ser385 = peptide positions 13 and 18); C-terminal amide
# Target: Recombinant human PTEN protein (human, UniProt P60483 1-403 (dog entry), limits assumed)
# Assay: cell-based or functional assay
# Recombinant human PTEN protein, sequence (P60483 whole entry): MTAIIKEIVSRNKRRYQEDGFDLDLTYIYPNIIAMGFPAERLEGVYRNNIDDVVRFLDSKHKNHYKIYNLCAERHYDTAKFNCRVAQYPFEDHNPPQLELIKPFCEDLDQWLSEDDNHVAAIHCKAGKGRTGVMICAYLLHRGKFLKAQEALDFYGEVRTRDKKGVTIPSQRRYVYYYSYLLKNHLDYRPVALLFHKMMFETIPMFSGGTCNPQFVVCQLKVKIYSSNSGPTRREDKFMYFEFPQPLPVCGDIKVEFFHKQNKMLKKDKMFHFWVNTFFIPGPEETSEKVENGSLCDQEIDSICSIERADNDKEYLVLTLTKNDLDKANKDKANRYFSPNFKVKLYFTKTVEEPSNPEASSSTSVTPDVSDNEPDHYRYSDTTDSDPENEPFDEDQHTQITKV
"IC50, in vitro PTEN activity assay (lipid phosphatase, C8-PIP3 liposomes, Malachite Green)","PTEN activity remaining with 10 µM peptide, compared with positive control (in vitro PTEN activity assay)",Binder
87.1 µM,86%,B1
–,54%,B2
–,31%,B3
